Source: patent US20260265379A1 (IMCHECK THERAPEUTICS, published 2026)

B1: bsAb003 (bispecific antibody, human IgG1, kappa)
heavy: QVQLVQSGAEVKKPGASVKLSCKASGYIFTRYYMYWVKQRPGQGLEWIGEINPNNGGTKFNEKFKNRATLTVDKSISTAYMELSRLRSDDTAVYYCSREDDYDGTPFAMDYWGQGTLVTVSSASTKGPSVFPLAPSSKSTSGGTAALGCLVKDYFPEPVTVSWNSGALTSGVHTFPAVLQSSGLYSLSSVVTVPSSSLGTQTYICNVNHKPSNTKVDKRVEPKSCDKTHTCPPCPAPEFEGGPSVFLFPPKPKDTLMISRTPEVTCVVVDVSHEDPEVKFNWYVDGVEVHNAKTKPREEQYNSTYRVVSVLTVLHQDWLNGKEYKCKVSNKALPASIEKTISKAKGQPREPQVYTLPPSREEMTKNQVSLTCLVKGFYPSDIAVEWESNGQPENNYKTTPPVLDSDGSFFLYSKLTVDKSRWQQGNVFSCSVMHEALHNHYTQKSLSLSPGGGGGSGGGGSGGGGSGGGGSEVQLVESGGGLVQPGGSLRLSCAASGFTFSRYWMSWVRQAPGKGLEWVANIKQDGSEKYYVDSVKGRFTISRDNAKNSLYLQMNSLRAEDTAVYYCAREGGWFGELAFDYWGQGTLVTVSSGGGGSGGGGSGGGGSGGGGSEIVLTQSPGTLSLSPGERATLSCRASQRVSSSYLAWYQQKPGQAPRLLIYDASSRATGIPDRFSGSGSGTDFTLTISRLEPEDFAVYYCQQYGSLPWTFGQGTKVEIK
light: not shown
notes: IgG anti-BTN3A, scFv anti-PD-L1 (VH-VL) at heavy chain C-terminus
B2: bsAb014 (bispecific antibody)
heavy: QVQLVQSGAEVKKPGASVKLSCKASGYIFTRYYMYWVKQRPGQGLEWIGEINPNNGGTKFNEKFKNRATLTVDKSISTAYMELSRLRSDDTAVYYCSREDDYDGTPFAMDYWGQGTLVTVSSASTKGPSVFPLAPSSKSTSGGTAALGCLVKDYFPEPVTVSWNSGALTSGVHTFPAVLQSSGLYSLSSVVTVPSSSLGTQTYICNVNHKPSNTKVDKRVEPKSCDKTHTCPPCPAPEFEGGPSVFLFPPKPKDTLMISRTPEVTCVVVDVSHEDPEVKFNWYVDGVEVHNAKTKPREEQYNSTYRVVSVLTVLHQDWLNGKEYKCKVSNKALPASIEKTISKAKGQPREPQVYTLPPSREEMTKNQVSLTCLVKGFYPSDIAVEWESNGQPENNYKTTPPVLDSDGSFFLYSKLTVDKSRWQQGNVFSCSVMHEALHNHYTQKSLSLSPG
light: not shown
notes: IgG anti-BTN3A, scFv anti-PD-1
B3: bsAb001 (bispecific antibody, human IgG1, kappa)
heavy: QVQLVQSGAEVKKPGASVKLSCKASGYIFTRYYMYWVKQRPGQGLEWIGEINPNNGGTKFNEKFKNRATLTVDKSISTAYMELSRLRSDDTAVYYCSREDDYDGTPFAMDYWGQGTLVTVSSASTKGPSVFPLAPSSKSTSGGTAALGCLVKDYFPEPVTVSWNSGALTSGVHTFPAVLQSSGLYSLSSVVTVPSSSLGTQTYICNVNHKPSNTKVDKRVEPKSCDKTHTCPPCPAPEFEGGPSVFLFPPKPKDTLMISRTPEVTCVVVDVSHEDPEVKFNWYVDGVEVHNAKTKPREEQYNSTYRVVSVLTVLHQDWLNGKEYKCKVSNKALPASIEKTISKAKGQPREPQVYTLPPSREEMTKNQVSLTCLVKGFYPSDIAVEWESNGQPENNYKTTPPVLDSDGSFFLYSKLTVDKSRWQQGNVFSCSVMHEALHNHYTQKSLSLSPGGGGGSGGGGSGGGGSGGGGSQVQLVQSGVEVKKPGASVKVSCKASGYTFTNYYMYWVRQAPGQGLEWMGGINPSNGGTNFNEKFKNRVTLTTDSSTTTAYMELKSLQFDDTAVYYCARRDYRFDMGFDYWGQGTTVTVSSGGGGSGGGGSGGGGSGGGGSEIVLTQSPATLSLSPGERATLSCRASKGVSTSGYSYLHWYQQKPGQAPRLLIYLASYLESGVPARFSGSGSGTDFTLTISSLEPEDFAVYYCQHSRDLPLTFGGGTKVEIK
light: not shown
notes: IgG anti-BTN3A, scFv anti-PD-1 (VH-VL) at heavy chain C-terminus
B4: ICT01 (antibody, V domains shown)
VH: QVQLVQSGAEVKKPGASVKLSCKASGYIFTRYYMYWVKQRPGQGLEWIGEINPNNGGTKFNEKFKNRATLTVDKSISTAYMELSRLRSDDTAVYYCSREDDYDGTPFAMDYWGQGTLVTVSS
VL: DIQMTQSPSSLSASVGDRVTITCHASQNINVWLSWYQQKPGKAPKLLIYKASNLHTGVPSRFTGSGSGTDFTFTISSLQPEDIATYYCQQGQTYPYTFGQGTKLEIK
notes: also called anti-BTN3A mAb; mAb 7.2
B5: bsAb018 (bispecific antibody)
heavy: EIVLTQSPATLSLSPGERATLSCRASKGVSTSGYSYLHWYQQKPGQAPRLLIYLASYLESGVPARFSGSGSGTDFTLTISSLEPEDFAVYYCQHSRDLPLTFGGGTKVEIKGGGGSGGGGSGGGGSGGGGSQVQLVQSGVEVKKPGASVKVSCKASGYTFTNYYMYWVRQAPGQGLEWMGGINPSNGGTNFNEKFKNRVTLTTDSSTTTAYMELKSLQFDDTAVYYCARRDYRFDMGFDYWGQGTTVTVSSGGGGSGGGGSGGGGSGGGGSQVQLVQSGAEVKKPGASVKLSCKASGYIFTRYYMYWVKQRPGQGLEWIGEINPNNGGTKFNEKFKNRATLTVDKSISTAYMELSRLRSDDTAVYYCSREDDYDGTPFAMDYWGQGTLVTVSSASTKGPSVFPLAPSSKSTSGGTAALGCLVKDYFPEPVTVSWNSGALTSGVHTFPAVLQSSGLYSLSSVVTVPSSSLGTQTYICNVNHKPSNTKVDKRVEPKSCDKTHTCPPCPAPEFEGGPSVFLFPPKPKDTLMISRTPEVTCVVVDVSHEDPEVKFNWYVDGVEVHNAKTKPREEQYNSTYRVVSVLTVLHQDWLNGKEYKCKVSNKALPASIEKTISKAKGQPREPQVYTLPPSREEMTKNQVSLTCLVKGFYPSDIAVEWESNGQPENNYKTTPPVLDSDGSFFLYSKLTVDKSRWQQGNVFSCSVMHEALHNHYTQKSLSLSPG
light: not shown
notes: as for B2
B6: bsAb042 (bispecific antibody)
heavy 1: QVQLVQSGVEVKKPGASVKVSCKASGYTFTNYYMYWVRQAPGQGLEWMGGINPSNGGTNFNEKFKNRVTLTTDSSTTTAYMELKSLQFDDTAVYYCARRDYRFDMGFDYWGQGTTVTVSS
heavy 2: QVQLVQSGAEVKKPGASVKLSCKASGYIFTRYYMYWVKQRPGQGLEWIGEINPNNGGTKFNEKFKNRATLTVDKSISTAYMELSRLRSDDTAVYYCSREDDYDGTPFAMDYWGQGTLVTVSSGGGGSGGGGSGGGGSGGGGSDIQMTQSPSSLSASVGDRVTITCHASQNINVWLSWYQQKPGKAPKLLIYKASNLHTGVPSRFTGSGSGTDFTFTISSLQPEDIATYYCQQGQTYPYTFGQGTKLEIKGGGGSGGGGSGGGGSGGGGS
light: EIVLTQSPATLSLSPGERATLSCRASKGVSTSGYSYLHWYQQKPGQAPRLLIYLASYLESGVPARFSGSGSGTDFTLTISSLEPEDFAVYYCQHSRDLPLTFGGGTKVEIKRTVAAPSVFIFPPSDEQLKSGTASVVCLLNNFYPREAKVQWKVDNALQSGNSQESVTEQDSKDSTYSLSSTLTLSKADYEKHKVYACEVTHQGLSSPVTKSFNRGECGGGGSGGGGSGGGGSGGGGSDIQMTQSPSSLSASVGDRVTITCHASQNINVWLSWYQQKPGKAPKLLIYKASNLHTGVPSRFTGSGSGTDFTFTISSLQPEDIATYYCQQGQTYPYTFGQGTKLEIKGGGGSGGGGSGGGGSGGGGSQVQLVQSGAEVKKPGASVKLSCKASGYIFTRYYMYWVKQRPGQGLEWIGEINPNNGGTKFNEKFKNRATLTVDKSISTAYMELSRLRSDDTAVYYCSREDDYDGTPFAMDYWGQGTLVTVSS
notes: one Fab arm anti-PD-1, two scFv anti-BTN3A; not shown: IgG1 CH1-hinge-CH2-CH3; CH2-CH3 (Fc)
B7: bsAb026 (bispecific antibody)
heavy: QVQLVQSGAEVKKPGASVKLSCKASGYIFTRYYMYWVKQRPGQGLEWIGEINPNNGGTKFNEKFKNRATLTVDKSISTAYMELSRLRSDDTAVYYCSREDDYDGTPFAMDYWGQGTLVTVSSASTKGPSVFPLAPSSKSTSGGTAALGCLVKDYFPEPVTVSWNSGALTSGVHTFPAVLQSSGLYSLSSVVTVPSSSLGTQTYICNVNHKPSNTKVDKRVEPKSCDKTHTCPPCPAPEFEGGPSVFLFPPKPKDTLMISRTPEVTCVVVDVSHEDPEVKFNWYVDGVEVHNAKTKPREEQYNSTYRVVSVLTVLHQDWLNGKEYKCKVSNKALPASIEKTISKAKGQPREPQVYTLPPSREEMTKNQVSLTCLVKGFYPSDIAVEWESNGQPENNYKTTPPVLDSDGSFFLYSKLTVDKSRWQQGNVFSCSVMHEALHNHYTQKSLSLSPGGGGGSGGGGSGGGGSGGGGSQVQLVQSGVEVKKPGASVKVSCKASGYTFTNYYMYWVRQAPGQGLEWMGGINPSNGGTNFNEKFKNRVTLTTDSSTTTAYMELKSLQFDDTAVYYCARRDYRFDMGFDYWGQGTTVTVSSASTKGPSVFPLAPSSKSTSGGTAALGCLVKDYFPEPVTVSWNSGALTSGVHTFPAVLQSSGLYSLSSVVTVPSSSLGTQTYICNVNHKPSNTKVDKKVEPKSCDKTHTGGSSGSGSGSTGTSSSGTGTSAGTTGTSASTSGSGSGGGGGSGGGGSAGGEIVLTQSPATLSLSPGERATLSCRASKGVSTSGYSYLHWYQQKPGQAPRLLIYLASYLESGVPARFSGSGSGTDFTLTISSLEPEDFAVYYCQHSRDLPLTFGGGTKVEIKRTVAAPSVFIFPPSDEQLKSGTASVVCLLNNFYPREAKVQWKVDNALQSGNSQESVTEQDSKDSTYSLSSTLTLSKADYEKHKVYACEVTHQGLSSPVTKSFNRGEC
light: not shown
notes: IgG anti-BTN3A, scFab anti-PD-1; formula printed IgG(H)-VH-CH1-linker1-VL-CL-linker2-

biological target: T1, PD-L1 at the surface of transduced cells (UniProt Q9NZQ7 19-290, limits assumed); assay: flow cytometry, CHO-PD-L1 cells
T1 construct: whole, on cells; CHO-PD-L1 cells in flow cytometry, Raji-PD-L1 cells in the reporter assay; also called CHO-PD-L1; Raji-PD-L1
T1 sequence (Q9NZQ7 19-290 limits assumed): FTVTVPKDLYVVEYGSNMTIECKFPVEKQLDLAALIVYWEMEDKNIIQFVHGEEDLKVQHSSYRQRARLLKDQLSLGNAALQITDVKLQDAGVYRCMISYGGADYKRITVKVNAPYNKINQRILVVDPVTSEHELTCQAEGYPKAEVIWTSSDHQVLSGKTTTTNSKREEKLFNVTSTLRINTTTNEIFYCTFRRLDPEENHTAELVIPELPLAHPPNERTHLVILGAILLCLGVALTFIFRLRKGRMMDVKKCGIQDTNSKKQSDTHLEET

| MFI at 10 nM | Binder |
| --- | --- |
| 722000 MFI | B1 |

biological target: T2, PD-1 at the surface of Jurkat-PD-1 cells (human, UniProt Q15116 25-288); assay: cell-based or functional assay
T2 sequence (Q15116 25-288): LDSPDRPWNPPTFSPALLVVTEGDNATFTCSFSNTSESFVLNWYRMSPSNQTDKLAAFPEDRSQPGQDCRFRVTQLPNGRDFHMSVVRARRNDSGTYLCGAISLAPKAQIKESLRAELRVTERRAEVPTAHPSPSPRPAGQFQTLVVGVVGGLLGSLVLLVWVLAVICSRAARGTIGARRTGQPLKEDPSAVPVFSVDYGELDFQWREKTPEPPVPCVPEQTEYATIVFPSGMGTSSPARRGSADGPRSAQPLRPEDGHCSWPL

| Jurkat-PD-1 activation at 10 nM | Jurkat-PD-1 activation at 100 nM | Binder |
| --- | --- | --- |
| 5.9 fold-change to medium | 1.9 fold-change to medium | B2 |
| 8 fold-change to medium | – | B3 |

biological target: T1, PD-L1 at the surface of transduced cells; assay: cell-based or functional assay

| Jurkat-PD-1 activation at 10 nM | Jurkat-PD-1 activation at 100 nM | Binder |
| --- | --- | --- |
| 8.5 fold-change to medium | 6.9 fold-change to medium | B1 |

biological target: T3, BTN3A1 at the surface of HEK-BTN3A1 cells (human, UniProt O00481 30-513); assay: flow cytometry, HEK-BTN3A1 cells
T3 construct: HEK 293T BTN2A/BTN3A KO cells transduced with a BTN3A1 expressing vector
T3 sequence (O00481 30-513 limits assumed): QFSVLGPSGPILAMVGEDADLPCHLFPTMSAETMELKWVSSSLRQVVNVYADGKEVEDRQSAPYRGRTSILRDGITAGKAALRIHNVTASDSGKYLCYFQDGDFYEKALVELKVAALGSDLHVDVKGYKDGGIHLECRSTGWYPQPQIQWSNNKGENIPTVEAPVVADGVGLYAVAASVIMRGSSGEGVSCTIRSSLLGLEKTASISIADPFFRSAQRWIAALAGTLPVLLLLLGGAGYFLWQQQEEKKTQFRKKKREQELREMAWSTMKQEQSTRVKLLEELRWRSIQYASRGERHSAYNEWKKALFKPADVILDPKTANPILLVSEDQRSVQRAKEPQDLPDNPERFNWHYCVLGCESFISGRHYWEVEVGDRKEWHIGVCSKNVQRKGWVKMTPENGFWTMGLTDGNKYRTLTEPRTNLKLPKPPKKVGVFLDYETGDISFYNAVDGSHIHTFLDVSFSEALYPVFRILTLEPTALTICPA

| MFI at 10 nM | MFI at 100 nM | Binder |
| --- | --- | --- |
| 1.01e+06 MFI | 1.82e+06 MFI | B4 |
| 502000 MFI | 1.08e+06 MFI | B5 |
| 824000 MFI | 1.24e+06 MFI | B6 |
| 500000 MFI | 950000 MFI | B1 |
| 410000 MFI | 1.03e+06 MFI | B7 |
| 464000 MFI | 812000 MFI | B2 |
| 507000 MFI | 710000 MFI | B3 |

biological target: T4, recombinant human BTN3A1 (human, UniProt O00481 30-254); assay: SPR
T4 construct: Soluble form of the antigen used in SPR; also called rhBTN3A1; recombinant BTN3A1 protein
T4 sequence (O00481 30-254 limits assumed): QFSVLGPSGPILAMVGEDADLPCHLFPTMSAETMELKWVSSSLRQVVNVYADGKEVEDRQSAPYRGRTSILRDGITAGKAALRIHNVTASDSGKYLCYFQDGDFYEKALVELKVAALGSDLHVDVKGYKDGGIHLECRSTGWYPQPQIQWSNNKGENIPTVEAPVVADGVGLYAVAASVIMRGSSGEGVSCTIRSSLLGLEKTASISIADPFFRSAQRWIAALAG
Protocol: SPR measures the interactions between two or more biomolecules. In capture kinetics analysis, an antibody is immobilized onto a gold-plated prism. The immobilized antibody is referred to as the ligand. An injection of antigen, referred to as the analyte, is carried out, often as a concentration series. The captured analytes are removed from the sensor chip surface using a regenerating agent, for example a low pH or high ionic strength solution. If investigating binding to several analytes, the antibodies are recaptured from solution before each analyte titration series. The instrument records the changes in refractive indexes (due to the accumulation or depletion of mass) in time and plots the results as sensorgrams.
Affinity measurements with respect to BTN3A, PD-1 and PD-L1 were performed by SPR technology, for instance in a Carterra LSA Platform instrument using a soluble form of the antigen as the analyte and the antibody as the ligand. Binding was also assessed through in cellulo binding assays, on cell lines (e.g. HEK293T cells) genetically modified to express the targets of interest or genetically modified to extinct target expression.
The 69 produced bsAbs and control mAbs were also evaluated for their binding affinity to recombinant proteins by SPR assays. The equilibrium dissociation constant (KD) was then calculated for constructs showing detectable binding.

| Kd | Binder |
| --- | --- |
| 0.073 nM | B4 |
| 0.212 nM | B5 |
| 0.093 nM | B6 |
| 0.073 nM | B1 |
| 0.068 nM | B7 |
| 0.083 nM | B2 |

biological target: T2, PD-1 at the surface of Jurkat-PD-1 cells; assay: flow cytometry, Jurkat-PD-1 cells

| MFI at 100 nM | MFI at 10 nM | Binder |
| --- | --- | --- |
| 347000 MFI | – | B5 |
| 362000 MFI | 212000 MFI | B6 |
| 257000 MFI | 73300 MFI | B7 |
| 290000 MFI | 165000 MFI | B2 |
| 396000 MFI | 179000 MFI | B3 |
